The text below walks through data of patent publication US20170137511A1 (CALYPSO BIOTECH, published 2017).

In assay [1] the target is T1, human IL-15 (preparation not stated) (human, UniProt P40933 49-162, limits assumed).
T1 construct: also called recombinant IL-15; recombinant human IL-15
Nature of the assay: ELISA screen of hybridoma supernatants. In general terms: In an ELISA, binding on a coated surface is turned into a signal by an enzyme label.

The target of assay [2] is T1, human IL-15 (preparation not stated). The experiment in a line: cell-based or functional assay.
Assay [3] has as its target T2, recombinant Macaque Monkey IL-15 (MyBiosource cat. no. MBS948894) (Rhesus macaque / Cynomolgus monkey, UniProt P40221 49-162 (Chlorocebus aethiops entry)). Nature of the assay: cell-based or functional assay.
In assay [4] the target is T3, recombinant human IL-15 (R&D systems cat. no. 247-IL) (human, UniProt P40933 49-162). The experiment in a line: cell-based or functional assay.
T3 sequence (P40933 49-162 limits assumed): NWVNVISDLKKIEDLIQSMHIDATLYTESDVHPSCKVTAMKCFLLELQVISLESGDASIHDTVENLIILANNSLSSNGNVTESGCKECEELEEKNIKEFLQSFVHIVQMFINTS
Assay [5] addresses T3, recombinant human IL-15 (R&D systems …). Nature of the assay: cell-based or functional assay. The source holds these as a separate data set.
Assay [6] has as its target T4, recombinant human IL-15 (Prospec cat no. CYT230) (human, UniProt P40933 49-162). Nature of the assay: ELISA, plate-bound human IL-15; printed as BC50 (half-maximal binding concentration). As for the experimental part:
(§1) Maxisorp plates were coated with recombinant human IL-15 (Prospec cat no. CYT230) or Rhesus macaque IL-15 (MyBiosource cat. no. MBS948894) at 100 ng/well in carbonate coating buffer for 2 hours at 37° C. Since published sequences of Rhesus macaque and Cynomolgus monkey IL-15 are identical, such recombinant IL-15 protein was referred to as Macaque Monkey IL-15. Tested human IL-15 recombinant protein has a sequence identical to that provided in SEQ ID NO: 1 but with an additional methionine at the N-terminal position as usually done for expressing recombinant proteins in E. Coli. Tested recombinant Macaque Monkey IL-15 was produced in yeast and has a sequence identical to that provided in SEQ ID NO: 4 but with an additional N-terminal His tag.
(§2) The plate was then blocked with 2% normal goat serum for 30 min at 37° C. and washed 6 times with PBS-Tween (0.05% Tween-20 in PBS, v/v). Test antibodies were added to the plate in triplicate at various dilutions in PBS-Tween and the plate was incubated with gentle rocking at room temperature for 2 hours. The plate was then washed 6 times with PBS-Tween and an appropriate dilution of goat anti-human IgG antibody (Millipore cat. no. AP309P) conjugated to horseradish peroxidase (HRP) was added to the plate and left rocking at room temperature for 1 hour. The plate was then washed 6 times with PBS-Tween and incubated with TMB substrate. The reaction was stopped by the addition of 1M H₂SO₄ and read at 450 nm. Dose response curves of absorbance versus concentration were plotted and analyzed to determine half-maximal binding concentrations (BC₅₀) using the Graphpad Prism software. BC₅₀ values expressed as molarity were extrapolated from concentration in ng/ml using a 150 kDa molecular weight value for all antibodies.

Assay [7] has as its target T2, recombinant Macaque Monkey IL-15 …. Nature of the assay: ELISA, plate-bound Macaque Monkey IL-15; printed as BC50 (half-maximal binding concentration). As for the experimental part: as §1, §2
Assay [8] deals with T4, recombinant human IL-15 (Prospec cat …). The experiment in a line: SPR (Biacore 3000), human IL-15 amine-coupled to the chip, antibody injected, 1:1 Langmuir fit. As for the experimental part: Human IL-15 (Prospec cat no. CYT230) was immobilized onto a CMS chip (GE Healthcare) using standard amine coupling, and antibodies injected at various concentrations in 120 μl phosphate buffer saline with a flow rate of […]. Binding kinetics were analyzed on a Biacore 3000 apparatus (GE Healthcare) with a 300 seconds dissociation period. Reference signal and 0 nM antibody concentration signal were substracted and data fitted using a 1:1 (Langmuir) binding model.

For assay [9], the target named is T5, recombinant rat IL-15 (Sigma cat. no. SRP4172) (rat, UniProt P97604 49-162).
T5 sequence: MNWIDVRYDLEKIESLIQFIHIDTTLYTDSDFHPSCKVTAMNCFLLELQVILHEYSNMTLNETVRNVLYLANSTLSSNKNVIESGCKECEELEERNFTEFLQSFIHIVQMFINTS
Nature of the assay: ELISA, plate-bound recombinant rat IL-15 (100 ng/well), HRP goat anti-human IgG, absorbance at 450 nm. As for the experimental part:
(§3) Maxisorp plates were coated with recombinant mouse IL-15 (R&D Systems cat. no. 447-ML) or rat IL-15 (Sigma cat. no. SRP4172) at 100 ng/well in carbonate coating buffer for 2 hours at 37° C. Tested IL-15 recombinant proteins have a sequence identical to that provided in SEQ ID NO: 2 (mouse IL-15) and SEQ ID NO: 3 (rat IL-15) but with an additional methionine at the N-terminal position as usually done for expressing recombinant proteins in E. Coli.
(§4) The plate was then blocked with 2% normal goat serum for 30 min at 37° C. and washed 6 times with PBS-Tween (0.05% Tween-20 in PBS, v/v). Test antibodies were added to the plate in triplicate at various dilutions in PBS-Tween and the plate was incubated with gentle rocking at room temperature for 2 hours. As positive controls, rabbit-anti-mouse IL-15 (Acris cat. no. AP01124PU-S) or rabbit anti-rat IL-15 (Biovision cat. no. 5172) antibodies were tested at the same concentrations. The plate was then washed 6 times with PBS-Tween and an appropriate dilution of HRP-conjugated goat anti-human IgG antibody (Millipore cat. no. AP309P) for humanized antibodies, or goat-anti-rabbit IgG antibody (Sigma cat. no. A 4416) for the positive controls was added and the plate was left rocking at room temperature for 1 hour. The plate was then washed 6 times with PBS-Tween and incubated with TMB substrate. The reaction was stopped by the addition of 1M H₂SO₄ and read at 450 nm. Dose response curves of absorbance versus concentration were plotted using the Graphpad Prism software.

For assay [10], the target named is recombinant human IL-2 (R&D Systems cat. no. 202-IL-010) (human, UniProt P60568 21-153). Nature of the assay: ELISA, plate-bound recombinant human IL-2 (100 ng/well), HRP goat anti-human IgG, absorbance at 450 nm. As for the experimental part: Maxisorp plates were coated with recombinant human IL-2 (R&D Systems cat. no. 202-IL-010) of SEQ ID NO: 38 at 100 ng/well in carbonate coating buffer for 2 hours at 37° C. The plate was then blocked with 2% normal goat serum for 30 min at 37° C. and washed 4 times with PBS-Tween (0.05% Tween-20 in PBS, v/v). Test antibodies or positive control biotinylated antibody (anti-IL-2 Novus Bio cat. no. NBP1-43491) were added to the plate in duplicate at 5 μg/ml in PBS-Tween and the plate was incubated with gentle rocking at room temperature for 2 hours. The plate was then washed 4 times with PBS-Tween and an appropriate dilution of goat anti-human IgG antibody (Millipore cat. no. AP309P) conjugated to horseradish peroxidase (HRP) for test antibodies, or streptavidin-HRP for positive control antibody, was added to the plate and left rocking at room temperature for 1 hour. The plate was then washed 4 times with PBS-Tween and incubated with TMB (3,3′,5,5′-tetramethylbenzidine) substrate. The reaction was stopped by the addition of 1 M H₂SO₄ and read at 450 nm.
Chain of recombinant human IL-2 (R&D Systems cat. no. 202-IL-010) (P60568 21-153 limits assumed): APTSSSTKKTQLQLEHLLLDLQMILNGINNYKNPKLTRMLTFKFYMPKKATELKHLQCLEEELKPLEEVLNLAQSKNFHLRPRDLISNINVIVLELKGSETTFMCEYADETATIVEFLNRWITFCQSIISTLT

Assay [11] has as its target T6, recombinant mouse IL-15 (R&D Systems cat. no. 447-ML) (mouse, UniProt P48346 49-162).
T6 sequence: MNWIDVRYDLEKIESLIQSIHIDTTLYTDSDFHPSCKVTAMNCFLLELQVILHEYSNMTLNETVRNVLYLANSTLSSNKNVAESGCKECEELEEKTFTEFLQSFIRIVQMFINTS
Nature of the assay: ELISA, plate-bound recombinant mouse IL-15 (100 ng/well), HRP goat anti-human IgG, absorbance at 450 nm. As for the experimental part: as §3, §4

T2 sequence (P40221 49-162): as the sequence (P40933 49-162 limits assumed) above, with L52H, A57T, S58D, S73I, V80I counted along it
T4 sequence (P40933 other isoform, or with tags, fused parts or gaps): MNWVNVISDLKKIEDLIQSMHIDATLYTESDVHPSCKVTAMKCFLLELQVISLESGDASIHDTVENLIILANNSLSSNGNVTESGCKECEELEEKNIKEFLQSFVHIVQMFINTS
T1 sequence (P40933 49-162 limits assumed): as the sequence (P40933 49-162 limits assumed) above

B1: mouse anti-IL-15 monoclonal antibody B-E29 (antibody, V domains shown)
VH: EVRLMASGGGLVKPGGSLKLSCAASEFTFSNYAMSWVRQTPEKRLEWVATISRGGDYTYYPDSVKGRFTISRDNAKNTLYLQMSSLRSEDTALYYCARRVSMITGGWAMDYWGQGTSVTVSS
VL: DVLMTQTPLSLPVSLGDQASISCRSSQSIVDITGNTYLEWYLQKPGQSPKLLIYKVFNRFSGVPDRFSGSGSGTDFTLKISRVEAEDLGLYYCFQDSFVPYTFGGGTKLEIK
notes: Mouse IgG1 (heavy chain) kappa (light chain); also called mouse B-E29; comparative antibody 1
With B1, the binding result in assay [1] is reported as “binds”.

B2: huB-E29-2 (antibody, human IgG1, kappa)
heavy: not shown
light: DVVMTQSPLSLPVTLGQPASISCRSSQSIVDITGNTYLEWYQQRPGQSPRLLIYKVFNRFSGVPDRFSGSGSGTDFTLKISRVEAEDVGVYYCFQDSFVPYTFGQGTKLEIKRTVAAPSVFIFPPSDEQLKSGTASVVCLLNNFYPREAKVQWKVDNALQSGNSQESVTEQDSKDSTYSLSSTLTLSKADYEKHKVYACEVTHQGLSSPVTKSFNRGEC
notes: Humanized B-E29 variant; human IgG1 (G1m3) / kappa (Km3), produced in CHO cells; also called huVH2/huVL1
Consider B2, for which the “half-maximal inhibitory concentration (IC50) of IL-15-induced prevention of apoptosis, type II RCD primary IEL cell line HAM RAC” value in [2] worked out at 2.36 nM. In addition, in assay [3], the “IC50 in Kit 225 cells (nM), Macaque Monkey IL-15” value is 0.112 nM and the “IC50 in M-07e cells (nM), Macaque Monkey IL-15” value turned out to be 0.23 nM. For the same molecule, in [4], the “IC50 in Kit 225 cells (nM), Human IL-15” value is 0.083 nM and the “IC50 in M-07e cells (nM), Human IL-15” value was 0.017 nM. In addition, the “IC50 in M07e cells for IL-15 trans presentation” value in assay [5] was 0.37 nM. For the same molecule, the EC50 (commonly the concentration giving half of the maximal effect) in [6] was 1.47 nM. Also, the 50% effective concentration (EC50) in assay [7] is 0.34 nM. In addition, in assay [8], the dissociation constant Kd (usually the constant that tells how readily two partners part at equilibrium) was 0.0094 nM, the dissociation rate constant (koff) (usually a measure of how fast the partners let go of each other) worked out at 1.07e-05 s⁻¹ and the kon (commonly a measure of how fast the partners come together) stood at 1.15e+06 M⁻¹ s⁻¹. Further, the binding result in assay [9] is listed as “no binding (tested: log 3.7 (about 5000 ng/mL))”. In addition, in assay [10], the binding result is listed as “no binding (tested: 5 µg/ml)”. For the same molecule, in assay [11], the binding result was “no binding (tested: log 3.7 (about 5000 ng/mL))”.
